In US11814447B2, “Peptide ligands for binding to EphA2” (BICYCLERD LIMITED, priority 2018, dated 2023):
Starred links: 1 amine or outer side, 2 acyl side, 3 side chain; linkers in the order of their positions; H or OH if unused. Positions of bridges follow the written chain, without caps; N, C: chain ends. Non-standard residues stand in square brackets, D forms with d. Primed or numbered codes have the meaning given here. No end group written: not given here. TBMB′ = 1,3,5-tris(bromomethyl)benzene, 1,3,5-tris(methylene)benzene core, three thioethers to Cys; 4FlPro = 4-fluoropyrrolidine-2-carboxylic acid (4-fluoroproline); Phe(3,4-Cl2) = N[C@@H](Cc1ccc(Cl)c(Cl)c1)C(=O)O; Bip = N[C@@H](Cc1ccc(-c2ccccc2)cc1)C(=O)O; Phe(4-Br) = N[C@@H](Cc1ccc(Br)cc1)C(=O)O; 1Nal = N[C@@H](Cc1cccc2ccccc12)C(=O)O; 2Nal = N[C@@H](Cc1ccc2ccccc2c1)C(=O)O; TBMB = c1c(C[*:1])cc(C[*:3])cc1C[*:2]; Hyp = O=C(O)[C@@H]1C[C@@H](O)CN1; hArg = N=C(N)NCCCC[C@H](N)C(=O)O; hPhe = N[C@@H](CCc1ccccc1)C(=O)O; 3Pal = N[C@@H](Cc1cccnc1)C(=O)O; 4Pal = N[C@@H](Cc1ccncc1)C(=O)O; Phg = N[C@H](C(=O)O)c1ccccc1; Tle = CC(C)(C)[C@H](N)C(=O)O; Pip = O=C(O)[C@@H]1CCCCN1; Aze = O=C(O)[C@@H]1CCN1; Aib = CC(C)(N)C(=O)O; Sar = CNCC(=O)O

B1: Bicycle Compound Number 124 (TBMB scaffold) (peptide)
peptide: [Sar][Sar]AC[Aib][1Nal]GPFWCPV[dA]RPGC
modifications: linker 4-11-18 via TBMB
notes: also called Sar2-AC(Aib)(1Nal)GPFWCPV(D-Ala)RPGC
B2: Bicycle Compound Number 130 (TBMB scaffold) (peptide)
peptide: [Sar][Sar]ACP[1Nal]GPFWCP[Tle]N[hArg]PGC
modifications: linker 4-11-18 via TBMB
notes: also called Compound 130; Sar2-ACP(1Nal)GPFWCP(tBuGly)N(HArg)PGC
B3: Bicycle Compound Number 117 (TBMB scaffold) (peptide)
peptide: [Sar][Sar]ACPWGPF[1Nal]CPV[dA]RPGC
modifications: linker 4-11-18 via TBMB
notes: also called Sar2-ACPWGPF(1Nal)CPV(D-Ala)RPGC
B4: Bicycle Compound Number 118 (TBMB scaffold) (peptide)
peptide: [Sar][Sar]ACPWGPF[1Nal]CPVNRP[dA]C
modifications: linker 4-11-18 via TBMB
notes: also called Sar2-ACPWGPF(1Nal)CPVNRP(D-Ala)C

Tests used:
[1] = target: T1, Human EphA2 (Ecto), C-terminal polyHis (Human, UniProt P29317 24-537); experiment: fluorescence polarisation competition; competitor fluorescent Compound 66
T1 construct: extracellular domain; also called EPH receptor A2; ephrin type-A receptor 2
Method: (§1) Peptides without a fluorescent tag were tested in competition with a peptide with a fluorescent tag and a known Kd (Table 2). Peptides were diluted to an appropriate concentration in assay buffer as described in the direct binding assay with a maximum of 5% DMSO, then serially diluted 1 in 2. […] Measurements were conducted as for the direct binding assay, however the gain was determined prior to the first measurement. Data analysis was in Systat Sigmaplot version 12.0 where the mP values were fit to a user defined cubic equation to generate a Ki value: […]

[2] = target: T1, Human EphA2 (Ecto), C-terminal polyHis; experiment: fluorescence polarisation competition; competitor fluorescent Compound 18
Method: as §1

T1 sequence (P29317 24-537): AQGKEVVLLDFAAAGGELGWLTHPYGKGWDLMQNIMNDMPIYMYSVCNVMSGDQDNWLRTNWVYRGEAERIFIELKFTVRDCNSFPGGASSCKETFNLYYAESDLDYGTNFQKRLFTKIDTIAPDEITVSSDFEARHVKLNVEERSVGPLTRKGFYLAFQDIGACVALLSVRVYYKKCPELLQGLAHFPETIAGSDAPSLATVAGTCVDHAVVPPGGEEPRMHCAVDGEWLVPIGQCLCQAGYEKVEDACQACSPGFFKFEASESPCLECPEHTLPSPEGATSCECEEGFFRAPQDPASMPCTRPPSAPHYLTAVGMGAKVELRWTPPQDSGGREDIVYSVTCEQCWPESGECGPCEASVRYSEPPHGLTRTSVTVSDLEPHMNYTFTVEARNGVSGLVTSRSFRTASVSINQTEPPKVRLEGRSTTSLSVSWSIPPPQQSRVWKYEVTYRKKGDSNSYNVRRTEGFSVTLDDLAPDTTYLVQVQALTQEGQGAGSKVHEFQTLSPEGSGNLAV

| Binder | Ki [1] | Ki [2] |
| --- | --- | --- |
| [Sar][Sar]ACPWGPFWC[Hyp]VNRPGC (linker 4-11-18 via TBMB′, also called Compound 98) [Bicycle Compound Number 98 (TBMB scaffold)] | 163 nM |  |
| [Sar][Sar]ACPWGPFWCPVNR[Aze]GC (linker 4-11-18 via TBMB) [Bicycle Compound Number 106 (TBMB scaffold)] | 155 nM |  |
| [Sar][Sar]ACPWGPFWCPVNR[Hyp]GC (linker 4-11-18 via TBMB) [Bicycle Compound Number 107 (TBMB scaffold)] | 85.8 nM | 48.7 nM |
| ACRVSPEYCPFGPVWCA (linker 2-9-16 via TBMB, also called Compound 33) [Bicycle Compound Number 33 (TBMB scaffold)] | 78.5 nM |  |
| ACRVSPEYCPFGPYWCA (linker 2-9-16 via TBMB, also called Compound 38) [Bicycle Compound Number 38 (TBMB scaffold)] | 26.5 nM |  |
| ACRVSPEYCPFGPSWCA (linker 2-9-16 via TBMB, also called Compound 36) [Bicycle Compound Number 36 (TBMB scaffold)] | 40.5 nM |  |
| ACRVSPEYCPFGPEWCA (linker 2-9-16 via TBMB, also called Compound 37) [Bicycle Compound Number 37 (TBMB scaffold)] | 61.2 nM |  |
| [Sar][Sar]ACPWG[Aib]FWCPVNRPGC (linker 4-11-18 via TBMB′, also called Compound 80) [Bicycle Compound Number 80 (TBMB scaffold)] | 187 nM | 120 nM |
| [Sar][Sar]ACP[1Nal]G[Aib]FWCP[Tle]N[hArg]PGC (linker 4-11-18 via TBMB) [Bicycle Compound Number 136 (TBMB scaffold)] | 15 nM | 23 nM |
| ACRVSPEYCPFGPVWCAGAAA (linker 2-9-16 via TBMB, also called Compound 34) [Bicycle Compound Number 34 (TBMB scaffold)] | 77.4 nM |  |
| [Sar][Sar]ACP[1Nal]GPFWCP[Tle]N[hArg][Aib]GC (linker 4-11-18 via TBMB) [Bicycle Compound Number 138 (TBMB scaffold)] |  | 5.1 nM |
| [Sar][Sar]ACPWGPFWCPVNR[4FlPro]GC (linker 4-11-18 via TBMB) [Bicycle Compound Number 109 (TBMB scaffold)] | 184 nM |  |
| ACPWGPFWCPVNRPGCA (linker 2-9-16 via TBMB, also called Compound 69) [Bicycle Compound Number 69 (TBMB scaffold)] | 70.1 nM | 107 nM |
| [Sar][Sar]ACPWGP[1Nal]WCPVNRPGC (linker 4-11-18 via TBMB′, also called Compound 94) [Bicycle Compound Number 94 (TBMB scaffold)] | 196 nM |  |
| [Sar][Sar]ACPWGP[Phe(3,4-Cl2)]WCPVNRPGC (linker 4-11-18 via TBMB′, also called Compound 90) [Bicycle Compound Number 90 (TBMB scaffold)] | 361 nM |  |
| [Sar][Sar]ACPWGP[hPhe]WCPVNRPGC (linker 4-11-18 via TBMB′, also called Compound 87) [Bicycle Compound Number 87 (TBMB scaffold)] |  | 162 nM |
| [Sar][Sar]ACPWGP[4Pal]WCPVNRPGC (linker 4-11-18 via TBMB′, also called Compound 84) [Bicycle Compound Number 84 (TBMB scaffold)] | 81.5 nM | 33.5 nM |
| [Sar][Sar]ACP[1Nal]G[Aib]FWCPVNRPGC (linker 4-11-18 via TBMB) [Bicycle Compound Number 119 (TBMB scaffold)] | 8.4 nM |  |
| AHDVPCPWGPFWCPVNRPGCA (linker 6-13-20 via TBMB (inferred), also called Compound 59) [Bicycle Compound Number 59 (TBMB scaffold)] |  | 0.54 nM |
| ARDDPCPWGPFWCPVNRPGCA (linker 6-13-20 via TBMB (inferred), also called Compound 62) [Bicycle Compound Number 62 (TBMB scaffold)] | 28 nM |  |
| [Sar][Sar]ACPWGPAWCPVNRPGC (linker 4-11-18 via TBMB′, also called Compound 83) [Bicycle Compound Number 83 (TBMB scaffold)] | 288 nM | 199 nM |
| [Sar][Sar]ACPWGPFWCPVARPGC (linker 4-11-18 via TBMB) [Bicycle Compound Number 101 (TBMB scaffold)] | 265 nM |  |
| [Sar][Sar]ACPWGPFWCPVNRP[dA]C (linker 4-11-18 via TBMB) [Bicycle Compound Number 112 (TBMB scaffold)] |  | 89 nM |
| [Sar][Sar]ACPWGPFWCPVNR[dA]GC (linker 4-11-18 via TBMB) [Bicycle Compound Number 105 (TBMB scaffold)] | 471 nM |  |

| Binder | Ki [1] | Ki [2] |
| --- | --- | --- |
| [Sar][Sar]ACPWGPFWCPVNRAGC (linker 4-11-18 via TBMB) [Bicycle Compound Number 104 (TBMB scaffold)] | 194 nM | 124 nM |
| [Sar][Sar]ACPWGPFWCPV[dA]RPGC (linker 4-11-18 via TBMB) [Bicycle Compound Number 102 (TBMB scaffold)] | 312 nM | 317 nM |
| [Sar][Sar]ACPWGPFWCPVNRPAC (linker 4-11-18 via TBMB) [Bicycle Compound Number 111 (TBMB scaffold)] | 238 nM | 108 nM |
| B1 |  | 26 nM |
| [Sar][Sar]ACPWGPFWC[Aze]VNRPGC (linker 4-11-18 via TBMB′, also called Compound 97) [Bicycle Compound Number 97 (TBMB scaffold)] | 286 nM |  |
| B2 |  | 0.29 nM |
| [Sar][Sar]ACPWGPFWCPVNR[Pip]GC (linker 4-11-18 via TBMB) [Bicycle Compound Number 108 (TBMB scaffold)] | 374 nM |  |
| [Sar][Sar]AC[Aib]WGPF[1Nal]CPVNRPGC (linker 4-11-18 via TBMB) [Bicycle Compound Number 114 (TBMB scaffold)] | 43 nM |  |
| [Sar][Sar]ACPWGP[2Nal]WCPVNRPGC (linker 4-11-18 via TBMB′, also called Compound 95) [Bicycle Compound Number 95 (TBMB scaffold)] | 362 nM |  |
| [Sar][Sar]ACPWGPFWC[4FlPro]VNRPGC (linker 4-11-18 via TBMB, also called Compound 99) [Bicycle Compound Number 99 (TBMB scaffold)] | 270 nM |  |
| [Sar][Sar]ACPWGPFWCPVNR[Aib]GC (linker 4-11-18 via TBMB, also called Compound 110) [Bicycle Compound Number 110 (TBMB scaffold)] | 140 nM | 75 nM |
| [Sar][Sar]ACPWGP[Phe(4-Br)]WCPVNRPGC (linker 4-11-18 via TBMB′, also called Compound 85) [Bicycle Compound Number 85 (TBMB scaffold)] | 174 nM |  |
| [Sar][Sar]ACPWGPFWCPVN[hArg]PGC (linker 4-11-18 via TBMB) [Bicycle Compound Number 103 (TBMB scaffold)] | 169 nM | 126 nM |
| [Sar][Sar]ACPWGPF[1Nal]CPVNRPGC (linker 4-11-18 via TBMB′, also called Compound 96) [Bicycle Compound Number 96 (TBMB scaffold)] | 68.1 nM | 31.3 nM |
| B3 | 75 nM | 53 nM |
| B4 |  | 37 nM |
| [Sar][Sar]ACPWGP[3Pal]WCPVNRPGC (linker 4-11-18 via TBMB′, also called Compound 92) [Bicycle Compound Number 92 (TBMB scaffold)] | 165 nM |  |
| [Sar][Sar]ACPWGPFWCP[Tle]NRPGC (linker 4-11-18 via TBMB, also called Compound 100) [Bicycle Compound Number 100 (TBMB scaffold)] | 112 nM | 58.3 nM |
| [Sar][Sar]AC[Aib][1Nal]G[Aib]FWCPVNR[Aib]GC (linker 4-11-18 via TBMB) [Bicycle Compound Number 135 (TBMB scaffold)] | 30 nM | 43 nM |
| ACPWGPAWCPVRDTNCA (linker 2-9-16 via TBMB, also called Compound 42) [Bicycle Compound Number 42 (TBMB scaffold)] | 316 nM |  |
| ACMNDWLCQLGWTCA (linker 2-8-14 via TBMB, also called Compound 30) [Bicycle Compound Number 30 (TBMB scaffold)] | 56 nM |  |
| ACMNDWLCSLGWTCA (linker 2-8-14 via TBMB, also called Compound 24) [Bicycle Compound Number 24 (TBMB scaffold)] | 82.3 nM |  |
| [Sar][Sar]ACPWGP[Bip]WCPVNRPGC (linker 4-11-18 via TBMB′, also called Compound 88) [Bicycle Compound Number 88 (TBMB scaffold)] | 183 nM |  |
| [Sar][Sar]ACPWGP[Phg]WCPVNRPGC (linker 4-11-18 via TBMB′, also called Compound 93) [Bicycle Compound Number 93 (TBMB scaffold)] | 412 nM |  |
